Test results as given in patent publication US20230416329A1 (INSTITUTE OF MATERIA MEDICA CHINESE ACADEMY OF MEDICAL …, published 2023).
Bridge positions count the residues as written; N and C are the ends. Ends that are not written are not given here.

What follows are binders tested against bovine trypsin (bovine, UniProt P00760 24-246) (assay: trypsin inhibition, BApNA substrate).
Experimental: The substrates N-succinyl-Ala-Ala-Pro-Phe-p-nitroaniline (AAPFpNA), Nα—Benzoyl-L-arginine-4-nitroaniline hydrochloride (BApNA) and N-succinyl-[…] (AAApNA) are used in competitive binding reaction to determine the inhibitory activities against α-chymotrypsin, bovine trypsin, and porcine pancreatic elastase, respectively. Experiments for α-chymotrypsin and bovine trypsin inhibition were measured in 20 mM CaCl₂, 50 mM Tris-HCl buffer (pH 7.8), and that for porcine elastase inhibition was measured in 50 mM Tris-HCl buffer (pH 8.0). The concentration of the peptide was measured using optical density (OD) at 280 nm. The Michaelis constant (Kₘ) of the enzyme hydrolysis substrate is calculated from the initial rate of substrate hydrolysis at 405 nm. The absorbance value of the substrate was measured at 405 nm after complete hydrolysis. All data were processed using nonlinear regression.
(1) Added a total 190 μL of reaction buffer (20 mM CaCl₂ and 50 mM Tris-HCl, pH 7.8) along with different concentrations of anti-trypsin peptides (BTs) into the pre-cooled 96-well plate, followed by preheating at 37° C., and spined down at 500 rpm for 5 min. Next added 10 μL of 1 μM trypsin, incubated at 37° C., and then spined down at 500 rpm for 10 min. Finally, added 5 μL of 50 mM BApNA, and mixed by centrifugation at 500 rpm for 1 min. […] The experiment was performed in triplicate. The blank control only contained the reaction buffer and the substrate as the minimum absorption value (Min OD_{405 nm}). The negative control only contained the reaction buffer, the enzyme and the substrate as the maximum absorption value (Max OD_{405 nm}). […] (2) In the reaction system of 205 μL, the final concentrations of trypsin and BApNA were 50 nM and 1.22 mM, respectively. [0456] (3) Data statistics

Sequence of bovine trypsin (P00760 24-246): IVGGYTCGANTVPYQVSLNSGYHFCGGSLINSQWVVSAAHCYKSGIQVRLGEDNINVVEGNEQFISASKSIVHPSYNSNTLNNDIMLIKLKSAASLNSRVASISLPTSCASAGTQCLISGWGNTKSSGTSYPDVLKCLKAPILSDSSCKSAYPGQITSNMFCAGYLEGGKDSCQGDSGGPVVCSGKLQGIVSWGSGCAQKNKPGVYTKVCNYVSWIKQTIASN

Row | IC50 | Ki | fold decrease in inhibitory activity compared to BT9 | Binder
1 | 90 nM | 20 nM | – | RCTKSIPPQCH (disulfide 2-10 (inferred)) [BT63]
2 | 160 nM | 30 nM | – | CGRATKSIPPICFPD (disulfide 1-12 (inferred)) [BT5]
3 | 230 nM | 50 nM | – | CGAATKSIPPICFPD (disulfide 1-12 (inferred)) [BT7]
4 | 290 nM | 60 nM | – | CGSATKSIPPICFPD (disulfide 1-12 (inferred)) [BT6]
5 | 620 nM | 130 nM | – | RCTKSLPPQCS (disulfide 2-10 (inferred)) [BT65]
6 | 890 nM | 190 nM | – | RCTRSIPPHCW (disulfide 2-10 (inferred)) [BT61]
7 | 30 nM | 6.4 nM | – | RCTKSIPPICF (disulfide 2-10 (inferred), also called truncated monocyclic SFTI-1 mutant) [BT45]
8 | 70 nM | 10 nM | – | RCTKSIPPHCF (disulfide 2-10 (inferred)) [BT62]
9 | 70 nM | 10 nM | – | CGRATKSIPPICF (disulfide 1-12 (inferred)) [BT9]
10 | 970 nM | 210 nM | – | CGTATKSIPPICF (disulfide 1-12 (inferred)) [BT25]
11 | 4490 nM | 960 nM | – | CGRATRSIPPACF (disulfide 1-12 (inferred)) [BT15]
12 | 130 nM | 30 nM | – | CLRATKSIPPICF (disulfide 1-12 (inferred)) [BT72]
13 | 60 nM | 10 nM | – | CGRQTKSIPPICF (disulfide 1-12 (inferred)) [BT54]
14 | 180 nM | 40 nM | – | CGRLTKSIPPICF (disulfide 1-12 (inferred)) [BT48]
15 | 500 nM | 110 nM | – | CGRITKSIPPICF (disulfide 1-12 (inferred)) [BT49]
16 | 120 nM | 30 nM | – | CIRATKSIPPICF (disulfide 1-12 (inferred)) [BT73]
17 | 40 nM | 8.5 nM | – | CKRATKSIPPICF (disulfide 1-12 (inferred)) [BT77]
18 | 280 nM | 60 nM | – | CGRATKAIPPICF (disulfide 1-12 (inferred)) [BT27]
19 | 110 nM | 20 nM | – | CGRHTKSIPPICF (disulfide 1-12 (inferred)) [BT56]
20 | 120 nM | 30 nM | – | CGRETKSIPPICF (disulfide 1-12 (inferred)) [BT58]
21 | 300 nM | 60 nM | – | CGRNTKSIPPICF (disulfide 1-12 (inferred)) [BT55]
22 | 580 nM | 120 nM | ~12 fold | CGRATRSIPPICF (disulfide 1-12 (inferred)) [BT17]
23 | 40 nM | 8.5 nM | – | CSRATKSIPPICF (disulfide 1-12 (inferred)) [BT75]

Row | IC50 | Ki | fold decrease in inhibitory activity compared to BT9 | Binder
24 | 130 nM | 30 nM | – | CGRWTKSIPPICF (disulfide 1-12 (inferred)) [BT57]
25 | 110 nM | 20 nM | – | CVRATKSIPPICF (disulfide 1-12 (inferred)) [BT71]
26 | 2500 nM | 530 nM | – | CGRAAKSIPPICF (disulfide 1-12 (inferred)) [BT26]
27 | 910 nM | 190 nM | – | CGRATKSLPAICF (disulfide 1-12 (inferred)) [BT16]
28 | 30 nM | 6.4 nM | – | CERATKSIPPICF (disulfide 1-12 (inferred)) [BT78]
29 | 4680 nM | 1000 nM | – | CGRATRAIPPICF (disulfide 1-12 (inferred)) [BT22]
30 | 50 nM | 10 nM | – | CGRSTKSIPPICF (disulfide 1-12 (inferred)) [BT47]
31 | 50 nM | 10 nM | – | CQRATKSIPPICF (disulfide 1-12 (inferred)) [BT79]
32 | 110 nM | 20 nM | – | CGRATKSIPAICF (disulfide 1-12 (inferred)) [BT10]
33 | 43400 nM | 9250 nM | – | CGRATRSIPPICA (disulfide 1-12 (inferred)) [BT19]
34 | 410 nM | 90 nM | – | CGRVTKSIPPICF (disulfide 1-12 (inferred)) [BT51]
35 | 39400 nM | 8380 nM | – | CGRATRSIPPICY (disulfide 1-12 (inferred)) [BT18]
36 | 430 nM | 90 nM | – | CGRGTKSIPPICF (disulfide 1-12 (inferred)) [BT60]
37 | 120 nM | 30 nM | – | CGRYTKSIPPICF (disulfide 1-12 (inferred)) [BT53]
38 | 60 nM | 10 nM | – | CPRATKSIPPICF (disulfide 1-12 (inferred)) [BT66]
39 | 130 nM | 30 nM | – | CGRFTKSIPPICF (disulfide 1-12 (inferred)) [BT52]
40 | 50 nM | 10 nM | – | CARATKSIPPICF (disulfide 1-12 (inferred)) [BT67]
41 | 18100 nM | 3850 nM | – | CGRATRSAPPICF (disulfide 1-12 (inferred)) [BT21]
42 | 26300 nM | 5590 nM | – | CGRPTKSIPPICF (disulfide 1-12 (inferred)) [BT59]
43 | 50 nM | 10 nM | – | CRRATKSIPPICF (disulfide 1-12 (inferred)) [BT76]
44 | 33900 nM | 7220 nM | – | CGTATKSIPPICN (disulfide 1-12 (inferred)) [BT24]
45 | 2430 nM | 520 nM | – | ACTKSNPPQCR (disulfide 2-10 (inferred)) [BT68]
46 | 3430 nM | 730 nM | – | RCTKSNPPQCQ (disulfide 2-10 (inferred)) [BT64]
